Laboratory results as given in US11572561B2, “Method and composition for inhibiting growth of bacterium” (priority 2020, dated 2023).
“Also recorded” adds a separate entry of the source.

How the values were obtained:
[1] = test system: resistance strains of P. aeruginosa (R3); experiment: MIC measurement (microbroth dilution) of resistance strain overexpressing sRNA; type: cell-based; details: transformed R3 strain
Excerpt: Different classes of antibiotics including aminoglycoside, cephalosporin, beta-lactam, extended-spectrum penicillin beta-lactam, fluoroquinolone were used. Antibiotics susceptibility and resistance strains are highlighted. R3-AS1974, R3-AS2779 and R3-IGR2780 represent R3 strains transformed with the corresponding sRNA while R3-AS1974-Reverse represents R3 strains transformed the sRNA which sequence was reverse and complementary to AS1974 (negative control). R3-empty vector was used as vector control. The strain ATCC27853 was used for quality control.
To find out if the sRNAs directly play a role in the intrinsic drug resistance of bacteria, each of the sRNAs was overexpressed in the resistance strains of P. aeruginosa, and MIC measurements were performed. […]
The MICs of 11 antibiotics, including penicillin G, cefotaxime, chloramphenicol, tetracycline, erythromycin, lincomycin, ciprofloxacin (Sigma, St. Louis, Mo., USA), levofloxacin (Daiichi Sankyo, Tokyo, Japan), gatifloxacin (Bristol-Myers Squibb, Moreton, UK), moxifloxacin (Bayer Healthcare Pharmaceuticals, Berlin, Germany), and linezolid (Pfizer, NJ, USA), were determined using the microbroth dilution method, according to the Clinical and Laboratory Standards Institute (CLSI). […]

[2] = test system: AS1974 target genes (mexD, chtA, prc, major facilitator superfamily, pilD, ndvB); experiment: Real-time qPCR of AS1974 target genes in AS1974-overexpressing resistance strain; type: cell-based, P. aeruginosa; details: R3-AS1974 vs R3-EV (empty vector)
Description: One of the major functions of sRNAs is to suppress the target gene expression under particular conditions or in response to external stimuli. To find out the regulatory roles of AS1974 sRNAs in various drug resistance pathways, the inventors sequenced the transcriptomes of six strains, and they used newly developed program to correlate sRNA repertoires with transcriptomes. […] To validate the transcriptome result, real-time qPCR experiments were performed to measure and compare the transcript levels of these genes in both drug-susceptible and drug-resistant strains.
To further investigate if these drug-resistant genes were directly controlled by this sRNA, AS1974 was overexpressed in the resistance strain and their transcript levels were measured by qPCR. Empty vector was used as a negative control. […]
Six P. aeruginosa strains, S1, S2, S3, R1, R2, and R3, were grown at 37° C. overnight in nutrient broth with shaking at 250 rpm and harvested at stationary phase (OD600=1.5-1.7). […] Melting curves were determined by an auto-dissociation program. […] The results were expressed as the means of at least 3 independent experiments. Data are presented as mean±SD, and comparisons were analyzed using unpaired t test (two tailed: *p<0.05, **p<0.01, and ***p<0.001).

[3] = test system: total transcripts of P. aeruginosa; experiment: Transcriptome profile comparison of AS1974-transformed and control strains (off-target effect); type: cell-based; details: AS1974-transformed vs control strains

B1: AS1974: sRNA of P. aeruginosa, SEQ ID NO: 2, located at the antisense region of mexR (nucleic acid, listed as Pseudomonas aeruginosa)
chain: GAATGTTCTTAAATATCCTCAAGCGGTTGCGCGGCCAGGCACTGGTCGAGGAGATGCACCAGGGTGGCCTGTTCCACCGGGGTGAGCGGGGCAAACAACTCGTCATGCACGCGTGACATGATGGCCTC
resistance of the AS1974-overexpressed strain to chloramphenicol ([1]; chloramphenicol): still showed resistance | effect of sRNA overexpression on MIC / antibiotic susceptibility of the resistance strain ([1]; aminoglycoside, cephalosporin, meropenem, ertapenem, empty vector control): hypersusceptibility; also recorded: transformed the bacteria from resistant strains to drug-sensitive strains | target gene expression upon overexpression of sRNA [2]: downregulated | total transcripts affected (off-target effect) [3]: less than 1%
